Variants at the floor of the assay were thinned out.
B1: TPR 5TU (parent)
chain: GGAUCUUCUCGAUCUAACAAAAAAGACAAAUCUGCCACAAAGCUUGAGAGCAUCUUCGGAUGCAGAGGCGGCAGCCUUCGGUGGCGCGAUAGCGCCAACGUUCUCAACUAUGACACGCAAAACGCGUGCUCCGUUGAAUGGAGUUUAUCAUG

Variants of: B1
Assay: polymerase ribozyme fitness, log enrichment relative to wild type (log ratio); higher = more active; in vitro selection for triplet polymerase activity
In short: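 Mutant libraries for each subunit of a heterodimeric triplet polymerase ribozyme were made by PCR and then transcribed. Each library underwent one round of in vitro selection in triplicate: annealing with a biotinylated primer, the partner subunit and triplets, frozen incubation at −7 °C, gel excision of extended constructs, streptavidin-bead capture and RT-PCR. Input and output libraries were Illumina-sequenced, and only genotypes with ≥10 input reads and ≥1 read per output were kept. Fitness is the logarithm, base 2, of genotype enrichment over wild-type enrichment, computed from inverse-variance-weighted replicate averages.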

Row | Variant | polymerase ribozyme fitness (log ratio)
1 | A28G G42U G88A C93U C118A | ≤ -4.2
2 | C27U A60G C93A C125G G136A | -2.85
3 | A28G C51A G80A | ≤ -4.2
4 | A28G C57G G84A A98G C114U | ≤ -4.2
5 | G25U U31A A64C U90A G124A | ≤ -4.2
6 | G25U A29U C38U G70C | ≤ -4.2
7 | A28U A37C | -3.93
8 | A26C G59U A60C U145A | -2.83
9 | A28C G68A G92C A122G C132G | -3.62
10 | A26G G48C A49G A73G C76U G83C G92U U148C | ≤ -4.2
11 | C27A A60G C75U C87U G100A C116U U148A | ≤ -4.2
12 | C27A U44A U61A C95U G117C A121U C129G | ≤ -4.2
13 | A28U C99G | -3.72
14 | A28C C108A G136A | ≤ -4.2
15 | A26G C35U A37U C76A U78A | ≤ -4.2
16 | C27U U101G G136A | -1.57
17 | G25U A41G | -0.833
18 | G25U A41U | -3
19 | A26U G59C U61A C75G A138C | ≤ -4.2
20 | A28C A66G U148A | ≤ -4.2
21 | C27G U77A G86U A115G C131U G143C U151G | ≤ -4.2

Row | Variant | polymerase ribozyme fitness (log ratio)
22 | A26C C85G C118A | -3.99
23 | C27G G84A | -3.69
24 | G25U G58U C69A G71C G94U G100C | ≤ -4.2
25 | C27G U33A U55A C87A A98C U104G U148A | ≤ -4.2
26 | C27G G152A | ≤ -4.2
27 | G25U G50U A73G U101G | -2.68
28 | A28U G48C C75U U90G G117A C129G | ≤ -4.2
29 | C27A C43A A60U C87A G143U | ≤ -4.2
30 | C27A G34A G50A A64U U78A G94U A106U G126C U148G | ≤ -4.2
31 | G25U C87U | -2.63
32 | C27G A28U G81C G141A | ≤ -4.2
33 | A28U A47G C96A G141A | ≤ -4.2
34 | C27U A37G U104G | -4.08
35 | G25U G58U G84A | -2.21
36 | A26C C38A G48U C63G C75U C87A C105A | ≤ -4.2
37 | A26U A29U G62U C99U C125U U134A | -4.08
38 | C27U C36U C57U G58A C96A A121U G140A | ≤ -4.2
39 | C27A C87A C93A G143C U144G | ≤ -4.2
40 | A28U A41C U61A C99A A122C | ≤ -4.2
41 | A28U A41U C93U U144C | -4.14
42 | C27G U55A A60G C125U | ≤ -4.2

Row | Variant | polymerase ribozyme fitness (log ratio)
43 | A26C C27U C57A G68C C131G | ≤ -4.2
44 | C27A C43A A66U C93G G140U G141A U146G | ≤ -4.2
45 | C27U A37C U56G | -2.92
46 | A28U U33G A89G A91G C95A A98C | ≤ -4.2
47 | A28U U44G A60C C85A U144C U148A | ≤ -4.2
48 | C27G U56A C99A | ≤ -4.2
49 | C27U G50U C95U C114U C118G A138U | ≤ -4.2
50 | A28U A60C A91G A98U | ≤ -4.2
51 | C27A C43G G92C U101C U127G U146A | ≤ -4.2
52 | C27A G86A U134A A147G | ≤ -4.2
53 | C27G U53A U55A A91G C103G A137U | ≤ -4.2
54 | A26C A29G C51U U53G G68A A142C A150G G152A | ≤ -4.2
55 | C27U U31C A52G U134C | -0.377
56 | C27A U44A U45A C93G | -4.2
57 | A28C G67U U144C U151C | ≤ -4.2
58 | A28C G50A A97U G124A A138C | ≤ -4.2
59 | C27U C32G G50A C69A A97G U135G G140A | ≤ -4.2
60 | A26U U146G | -1.92
61 | A26C G58C A60U G71C C93G | ≤ -4.2
62 | C27U A29C U44A U55A C95G G117U | ≤ -4.2
63 | A26U C54G | -3.33

Row | Variant | polymerase ribozyme fitness (log ratio)
64 | A26G A40C G68U | ≤ -4.2
65 | C27U U53A | -2.76
66 | G25U G92C A115G | -3.33
67 | C27U C76G G88A C93G G100U | ≤ -4.2
68 | A28C A37G A47G A66C G86A A107U U135C | ≤ -4.2
69 | A26U C85U U146G | -1.93
70 | A28U C95U C99U C118A | ≤ -4.2
71 | A28U G84U G86A G94A A98G C131A | ≤ -4.2
72 | A26U U44A A97U | ≤ -4.2
73 | C27A C36G A91U C99U | ≤ -4.2
74 | A28U G50A U77C C85A C96G C105G G141A U144C | ≤ -4.2
75 | A28C A39C | ≤ -4.2
76 | A28G G58C C87U C99U | ≤ -4.2
77 | A28G A47U A49C C85A G136C U146G | ≤ -4.2
78 | G25U C116U A122U | -4.04
79 | C27A G62A C87G A91C | ≤ -4.2
80 | A28U C38U G59U A60G G94A C95U C103U | ≤ -4.2
81 | A26U G42C C72A C93A C116U | ≤ -4.2
82 | A28C A49U U55A U61A C76A A142C U146A | ≤ -4.2
83 | A28C G81C G92U C103G | ≤ -4.2

Source: the RNAGym collection of RNA variant scans (doi:10.1073/pnas.2313332121)
